In US20190008947A1:
Several values for one entry are separate records, joined by “and”; a condition that tells them apart may be missing. Equal values may be shown once. Read-outs that look alike come from different tables or passages of the source.

How the values were obtained:
B*07:02, P01889 = assay: ProImmune REVEAL MHC-peptide binding assay, B*07:02
H-2Kb (mouse), P01901 = target: T1, H-2Kb (mouse), P01901; assay: ProImmune REVEAL MHC-peptide binding assay, H-2Kb
T1 chain: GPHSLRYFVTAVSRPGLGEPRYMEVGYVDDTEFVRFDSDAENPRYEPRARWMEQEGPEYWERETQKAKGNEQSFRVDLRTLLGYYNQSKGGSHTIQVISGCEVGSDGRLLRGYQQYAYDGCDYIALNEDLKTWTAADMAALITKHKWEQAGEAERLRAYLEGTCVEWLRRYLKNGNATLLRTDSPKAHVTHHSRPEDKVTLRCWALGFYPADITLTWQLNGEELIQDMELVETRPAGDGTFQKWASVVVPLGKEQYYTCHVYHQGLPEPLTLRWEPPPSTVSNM

[1] = target: T2, HLA-A*02:01 (human), P04439; details: chains peptide; modification not given
T2 chain: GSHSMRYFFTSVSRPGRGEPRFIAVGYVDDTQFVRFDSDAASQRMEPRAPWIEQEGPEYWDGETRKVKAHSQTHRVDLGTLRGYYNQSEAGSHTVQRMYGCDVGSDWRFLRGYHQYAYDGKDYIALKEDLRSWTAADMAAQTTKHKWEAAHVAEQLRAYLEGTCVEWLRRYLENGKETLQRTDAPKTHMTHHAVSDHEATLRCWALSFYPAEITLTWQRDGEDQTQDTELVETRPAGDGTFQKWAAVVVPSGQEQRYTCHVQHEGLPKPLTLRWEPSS

[2] = target: HLA-A*02:01 (human), P04439; assay: ProImmune REVEAL MHC-peptide binding assay, A*02:01, score against positive control
[3] = target: T2, HLA-A*02:01 (human), P04439; details: chains peptide; modification not given
A*24:02, P16209 [4] = details: modification not given
B*27:05, P13750 = assay: ProImmune REVEAL MHC-peptide binding assay, B*27:05
HLA-A*32:01 [5] = assay: HLA binding; serotype 4; details: chains peptide; modification not given
HLA-B*40:01 [6] = assay: HLA binding; serotype 4; details: chains peptide; modification not given
A*24:02, P16209 [7] = details: modification not given; remark: listed apart in the source
A*11:01, P04439 [8] = details: modification not given
HLA-A*32:01 [9] = assay: HLA binding; serotype 1; details: chains peptide; modification not given
HLA-B*40:01 [10] = assay: HLA binding; serotype 1; details: chains peptide; modification not given
HLA-A*32:01 [11] = assay: HLA binding; serotype 3; details: chains peptide; modification not given
HLA-B*15:01 = assay: HLA binding; serotype 3; details: chains peptide; modification not given
HLA-B*40:01 [12] = assay: HLA binding; serotype 3; details: chains peptide; modification not given
A*11:01, P04439 [13] = details: modification not given; remark: listed apart in the source
A*03:01, P04439 [14] = details: modification not given
A*11:01, P04439 [15] = details: modification not given; remark: listed apart in the source
[16] = target: HLA-A*02:01 (human), P04439
A*11:01, P04439 [17] = details: modification not given; remark: listed apart in the source
A*03:01, P04439 [18] = target: T3, A*03:01, P04439; details: modification not given
T3 chain: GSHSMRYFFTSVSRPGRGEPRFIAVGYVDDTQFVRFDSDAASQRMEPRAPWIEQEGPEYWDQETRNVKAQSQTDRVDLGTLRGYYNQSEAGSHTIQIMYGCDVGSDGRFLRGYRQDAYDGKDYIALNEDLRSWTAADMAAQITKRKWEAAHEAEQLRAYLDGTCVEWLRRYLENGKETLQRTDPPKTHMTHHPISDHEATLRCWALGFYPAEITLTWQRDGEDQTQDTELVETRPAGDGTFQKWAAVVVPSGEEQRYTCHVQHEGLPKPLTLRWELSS

A*24:02, P16209 [19] = details: modification not given; remark: listed apart in the source
A*24:02, P16209 [20] = details: modification not given; remark: listed apart in the source
A*11:01, P04439 [21] = details: modification not given; remark: listed apart in the source
A*03:01, P04439 [22] = target: T3, A*03:01, P04439; details: modification not given
A*11:01, P04439 [23] = details: modification not given; remark: listed apart in the source
A*03:01, P04439 [24] = details: modification not given; remark: listed apart in the source
A*11:01, P04439 [25] = details: modification not given; remark: listed apart in the source
A*11:01, P04439 [26] = details: modification not given; remark: listed apart in the source

## PLSRNSTHE (modifications not checked)
B*07:02, P01889
  REVEAL ® score at 0 h: 65

## HATFTMRLL (modifications not checked)
H-2Kb (mouse), P01901
  REVEAL ® score at 0 h: 69.5

## KQWFLDLPL (modifications not checked) [… (SEQ ID NO: 341)]
[1]
  IC50: 11 nM
[2]
  REVEAL Score: 86

## RQWFFDLPL (modifications not checked) [… (SEQ ID NO: 343)]
[3]
  IC50: 39 nM and 12 nM
[2]
  REVEAL Score: 80.5

## SYAMCLNTF
A*24:02, P16209 [4]
  IC50: 540 nM

## LSRNSTHEM (modifications not checked)
H-2Kb (mouse), P01901
  REVEAL ® score at 0 h: 51.1
B*07:02, P01889
  REVEAL ® score at 0 h: 124

## RRGDLPVWL (modifications not checked)
B*27:05, P13750
  REVEAL ® score at 0 h: 145

## FKPGTSGSP (modifications not checked)
H-2Kb (mouse), P01901
  REVEAL ® score at 0 h: 45.7

## KQWFLDLPL […, serotype 4, listing 1 of 2 here]
HLA-A*32:01 [5]
  IC50: 8 nM
HLA-B*40:01 [6]
  IC50: 398 nM

## SYSMCTGKF
A*24:02, P16209 [7]
  IC50: 115 nM

## VTFKNAHAK
A*11:01, P04439 [8]
  IC50: 17 nM

## KQWFLDLPL […, serotype 1, listing 2 of 2 here]
HLA-A*32:01 [9]
  IC50: 8 nM
HLA-B*40:01 [10]
  IC50: 398 nM

## RQWFFDLPL
HLA-A*32:01 [11]
  IC50: 7 nM
HLA-B*15:01
  IC50: 80 nM
HLA-B*40:01 [12]
  IC50: 51 nM

## SRNSTHEMY (modifications not checked)
B*07:02, P01889
  REVEAL ® score at 0 h: 52

## ARGYISTRV (modifications not checked)
B*27:05, P13750
  REVEAL ® score at 0 h: 125

## LMYFHRRDL (modifications not checked)
H-2Kb (mouse), P01901
  REVEAL ® score at 0 h: 54.9

## ALTLHWFRK
A*11:01, P04439 [13]
  IC50: 47 nM
A*03:01, P04439 [14]
  IC50: 34 nM

## LMCHATFTM (modifications not checked)
H-2Kb (mouse), P01901
  REVEAL ® score at 0 h: 59
B*27:05, P13750
  REVEAL ® score at 0 h: 98.2

## QQRVFKEKV (modifications not checked)
H-2Kb (mouse), P01901
  REVEAL ® score at 0 h: 63.4

## LAPTRVVAA (modifications not checked)
H-2Kb (mouse), P01901
  REVEAL ® score at 0 h: 102

## ATFTMRLLS (modifications not checked)
H-2Kb (mouse), P01901
  REVEAL ® score at 0 h: 55.6

## VTFKNPHAK
A*11:01, P04439 [15]
  IC50: 17 nM

## TALTGATEI (modifications not checked) [… (SEQ ID NO: 344)]
[16]
  REVEAL Score: 0.9

## FKLTYQNKV (modifications not checked)
B*27:05, P13750
  REVEAL ® score at 0 h: 53.7

## QLKLNWFKK
A*11:01, P04439 [17]
  IC50: 778 nM
A*03:01, P04439 [18]
  IC50: 151 nM

## CHATFTMRL (modifications not checked)
H-2Kb (mouse), P01901
  REVEAL ® score at 0 h: 60.3

## SYVMCTGSF
A*24:02, P16209 [19]
  IC50: 104 nM

## SYTMCSGKF
A*24:02, P16209 [20]
  IC50: 222 nM

## ALKINWYRK
A*11:01, P04439 [21]
  IC50: 376 nM
A*03:01, P04439 [22]
  IC50: 193 nM

## ALKLSWFKK
A*11:01, P04439 [23]
  IC50: 59 nM
A*03:01, P04439 [24]
  IC50: 42 nM

## VTFKVPHAK
A*11:01, P04439 [25]
  IC50: 14 nM

## YGLNTFTNM (modifications not checked)
H-2Kb (mouse), P01901
  REVEAL ® score at 0 h: 75.4

## VTFKTAHAK
A*11:01, P04439 [26]
  IC50: 16 nM
